Consider 38 variants from the RNAGym collection of RNA variant scans (doi:10.7554/elife.80360).

The chains are these.
B1: Hairpin Ribozyme (parent)
chain: GUCCUCUUUCACGUGCGCGUGAAAGAGAGAAGUGAACCAGAGAAACACACGUUGUGGUAUAUUACCUGGUA

In the data set the parent is B1. The data set can be described thus: self-cleavage, relative activity (ratio to wild type); higher = more cleavage; co-transcriptional.
As to GGCCUCUUUCACGUGCGCGUGAAAGAGAGAAGUGAACCAGAGAAACACACGUUGUGGUAUAUUGCCUGGUA [U2G A64G], the self-cleavage is 0.159.

For GGCCUCUUUCACGUGCGCGUGAAAGAGAGAAGUGAACCAGAGAAACACACGUUGUGGUAUAUUCCCUGGUA [U2G A64C], the self-cleavage was 0.165. Turning to GCCCUCUUUCACGUGCGCGUGAAAGAGAGAAGUGAACCAAAGAAACACACGUUGUGGUAUAUUACCUGGUA [U2C G40A], the self-cleavage turned out to be 0.192. In the case of GCCCUCUUUCACGUGCGCGUGAAAGAGAGAAGUGAACCACAGAAACACACGUUGUGGUAUAUUACCUGGUA [U2C G40C], the self-cleavage was 0.0737.

As for GCCCUCUUUCACGUGCGCGUGAAAGAGAGAAGUGAACCAGAGAAACACACGUUGUGGUAUAUUACUUGGUA [U2C C66U], the self-cleavage was 0.0916. With GCCCUCUUUCACGUGCGCGUGAAAGAGAGAAGUGAAGCAGAGAAACACACGUUGUGGUAUAUUACCUGGUA [U2C C37G], the self-cleavage came out at 0.0267. For the variant GCCCUCUUUCAGGUGCGCGUGAAAGAGAGAAGUGAACCAGAGAAACACACGUUGUGGUAUAUUACCUGGUA [U2C C12G], the self-cleavage was 0.0835. Regarding GCCCUCUUUCAAGUGCGCGUGAAAGAGAGAAGUGAACCAGAGAAACACACGUUGUGGUAUAUUACCUGGUA [U2C C12A], the self-cleavage came out at 0.205. Regarding GCCCUCUUUCAUGUGCGCGUGAAAGAGAGAAGUGAACCAGAGAAACACACGUUGUGGUAUAUUACCUGGUA [U2C C12U], the self-cleavage is 0.226. As to GGCCUCUUUCACGUGCGCGUGAAAGAGAGUAGUGAACCAGAGAAACACACGUUGUGGUAUAUUACCUGGUA [U2G A30U], the self-cleavage is 0.117. Turning to GGCCUCUUUCACGUGCGCGUGAAAGAGAGCAGUGAACCAGAGAAACACACGUUGUGGUAUAUUACCUGGUA [U2G A30C], the self-cleavage amounted to 0.108. The result for GCCCUCUUUCACGUGCGCGUGAAAGAGAGAAGUGAACCAGAGAAACACACGUUGUGGUAUAUUACCUGAUA [U2C G69A] reads 0.0698; that for GCCCUCUUUCACGUGCGCGUGAAAGAGAGAAGUGAACCAGAGAAACACACGUUGUGGUAUAUUACCUGCUA [U2C G69C], 0.0747. With GGCCUCUUUCACGUGCGCGUGAAAGAGAGAAGUGAACCAGAGAAACACACGUUGUGGUAUCUUACCUGGUA [U2G A61C], the self-cleavage is 0.109. Consider GGCCUCUUUCACGUGCGCGUGAAAGAGAGAAGUGAACCAGAGAAACACACGUUGUGGUAUGUUACCUGGUA [U2G A61G], for which the self-cleavage was determined as 0.15.

With GCCCUCUUUCACGUGCGCGUGAAAGAGAGAAGUGAACCAGAGAAACACACGUUGUGGUAUAUUCCCUGGUA [U2C A64C], the self-cleavage was found to be 0.0771. Regarding GCCCUCUUUCACGUGCGCGUGAAAGAGAGAAGUGAACCAGAGAAACACACGUUGUGGUAUAUUUCCUGGUA [U2C A64U], the self-cleavage came to 0.107. GCCCUCUUUCACGUGCGCGUGAAAGAGAGAAGUGAACCAGAGAAACACACGUUGUGGUAUAUUACCUGGUC [U2C A71C]: the self-cleavage came to 0.444.

Consider GCCCUCUUUCACGUGCGCGUGAAAGAGAGAAGUGAACCAGAGAAACACACGUUGUGGUAUAUUAUCUGGUA [U2C C65U], for which the self-cleavage worked out at 0.162. The result for GCCCUCUUUCACGUGCGCGUGAAAGAGAGAAGUGAACCAGAGAAACACACGUUGUGGUAUAUUAGCUGGUA [U2C C65G] reads 0.0439; that for GGCCUCUUUCACGUGCGCGUGUAAGAGAGAAGUGAACCAGAGAAACACACGUUGUGGUAUAUUACCUGGUA [U2G A22U], 0.259. In the case of GCCCUCCUUCACGUGCGCGUGAAAGAGAGAAGUGAACCAGAGAAACACACGUUGUGGUAUAUUACCUGGUA [U2C U7C], the self-cleavage was 0.246. Turning to GCCCUCGUUCACGUGCGCGUGAAAGAGAGAAGUGAACCAGAGAAACACACGUUGUGGUAUAUUACCUGGUA [U2C U7G], the self-cleavage was 0.105. Take GCCCUCUUUCACGUGCGCGUGAAAGAGAGAAGUGAACCAGAGAAAAACACGUUGUGGUAUAUUACCUGGUA [U2C C46A]: the self-cleavage worked out at 0.232. As for GCCCUCUUUCACGAGCGCGUGAAAGAGAGAAGUGAACCAGAGAAACACACGUUGUGGUAUAUUACCUGGUA [U2C U14A], the self-cleavage was determined as 0.0424.

Consider GCCCUCUUUCACGUGCGCGUGAAAGAGAGAAGUGAACCAGAGAAACACACAUUGUGGUAUAUUACCUGGUA [U2C G51A], for which the self-cleavage amounted to 0.219. In the case of GCCCUCUUUCACGUGCGCGUGAAAGAGAGAAGUGAACCAGAGAAACACACCUUGUGGUAUAUUACCUGGUA [U2C G51C], the self-cleavage is 0.506. Consider GCCCUCUUUCACGUGCGCGUGAAAGAGAGAAGUGAACCAGAGAAACACACGUUGUGGGAUAUUACCUGGUA [U2C U58G], for which the self-cleavage turned out to be 0.148. GGCCUCUUUCACGUGCGCGUGAAAGAGAGAAGUGAACCAGUGAAACACACGUUGUGGUAUAUUACCUGGUA [U2G A41U]: the self-cleavage stood at 0.71.

For GGCCUCUUUCACGUGCGCGUGAAAGAGAGAAGUGAACCAGAGAAACACACGUUGUGGUGUAUUACCUGGUA [U2G A59G], the self-cleavage is 0.225. As for GCCCUCUUUCACGUGCGCGUGAAAGAGAGAAGUGAACUAGAGAAACACACGUUGUGGUAUAUUACCUGGUA [U2C C38U], the self-cleavage stood at 0.147. GCCCUCUUUCACGUGCGCGUGAAAGAGAGAAGUGAACAAGAGAAACACACGUUGUGGUAUAUUACCUGGUA [U2C C38A]: the self-cleavage amounted to 0.0742.

For the variant GCCCUCUUUCACGUGCGCGCGAAAGAGAGAAGUGAACCAGAGAAACACACGUUGUGGUAUAUUACCUGGUA [U2C U20C], the self-cleavage turned out to be 0.273.

Take GCCCUAUUUCACGUGCGCGUGAAAGAGAGAAGUGAACCAGAGAAACACACGUUGUGGUAUAUUACCUGGUA [U2C C6A]: the self-cleavage was determined as 0.0756. As for GCCCUUUUUCACGUGCGCGUGAAAGAGAGAAGUGAACCAGAGAAACACACGUUGUGGUAUAUUACCUGGUA [U2C C6U], the self-cleavage worked out at 0.245. As to GCCCUGUUUCACGUGCGCGUGAAAGAGAGAAGUGAACCAGAGAAACACACGUUGUGGUAUAUUACCUGGUA [U2C C6G], the self-cleavage was determined as 0.0983. The result for GGCCUCUUUUACGUGCGCGUGAAAGAGAGAAGUGAACCAGAGAAACACACGUUGUGGUAUAUUACCUGGUA [U2G C10U] reads 0.269; that for GGCCUCUUUGACGUGCGCGUGAAAGAGAGAAGUGAACCAGAGAAACACACGUUGUGGUAUAUUACCUGGUA [U2G C10G], 0.287.
